Laboratory results reported in patent publication US20020176853A1.

Molecular target: mouse pro-IL-1β (mouse) (UniProt P10749)
Test: cell-based or functional assay

Chain of UniProt P10749 (P10749 whole entry): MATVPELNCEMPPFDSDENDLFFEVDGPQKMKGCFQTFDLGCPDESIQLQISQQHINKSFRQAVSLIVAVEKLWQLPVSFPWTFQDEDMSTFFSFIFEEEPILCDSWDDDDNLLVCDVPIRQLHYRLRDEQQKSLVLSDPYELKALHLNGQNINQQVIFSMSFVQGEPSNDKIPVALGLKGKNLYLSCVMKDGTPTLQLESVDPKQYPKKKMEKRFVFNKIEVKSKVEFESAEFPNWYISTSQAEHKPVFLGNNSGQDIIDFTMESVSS

- secretion of mature IL-1β into the culture medium (ELISA), COS-7 cells: 80 to 250 pg/mL
Substance: pro-caspase-1 (full-length, wild-type) (from UniProt P29466 1-404) (enzyme)
